Assay in all cases: FACS binding, CHO-K1 cells
A general note: Flow cytometry measures light scatter and fluorescence of single cells or particles in a stream.

For test [1], the target named is T1, human PD-L1 (human, UniProt Q9NZQ7 19-290).
For test [2], the target named is T1, human PD-L1. The source holds these as a separate data set.
Test [3] concerns the target T1, human PD-L1. The source holds these as a separate data set.

Where two headings read alike, the source gives them in different places.

T1 sequence (Q9NZQ7 19-290): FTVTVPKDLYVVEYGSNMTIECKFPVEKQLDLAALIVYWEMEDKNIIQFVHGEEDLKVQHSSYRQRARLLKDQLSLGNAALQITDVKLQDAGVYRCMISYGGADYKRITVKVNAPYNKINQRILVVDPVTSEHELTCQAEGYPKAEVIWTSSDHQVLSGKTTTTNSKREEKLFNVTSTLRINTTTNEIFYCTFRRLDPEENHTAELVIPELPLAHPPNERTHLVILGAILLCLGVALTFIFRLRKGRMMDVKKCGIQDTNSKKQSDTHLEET

B1: CLDN18L-E-pdl1a (bispecific antibody)
heavy: not shown
light: DIVMTQSPLSLPVTPGEPASISCKSSQTLLNSGNQKNYLTWYLQKPGQSPQLLIYWASTGESGVPDRFSGSGSGTDFTLKISRVEAEDVGVYYCQNAYFYPFTFGGGTKVEIKRTVAAPSVFIFPPSDEQLKSGTASVVCLLNNFYPREAKVQWKVDNALQSGNSQESVTEQDSKDSTYSLSSTLTLSKADYEKHKVYACEVTHQGLSSPVTKSFNRGECEPKSSDKTHTSPPSPEVQLVESGGGLVQPGGSLRLSCAASGRTFVTYGMGWFRQAPGKGREFVSAISWSGSMTSYGDSVKGRFTISRDNAKNTLYLQMNSLRPEDTAVYYCAAALGAVVYTTREPYTYWGQGTLVTVSS
For B1, the EC50 (commonly the midpoint of the concentration-response curve) in the test with human PD-L1 [1] was determined as 0.34 nM; with human PD-L1 [2], 0.262 nM; with human PD-L1 [3] it was 0.215 nM.

B2: CLDN18L-G9-pdl1a (bispecific antibody)
heavy: not shown
light: DIVMTQSPLSLPVTPGEPASISCKSSQTLLNSGNQKNYLTWYLQKPGQSPQLLIYWASTGESGVPDRFSGSGSGTDFTLKISRVEAEDVGVYYCQNAYFYPFTFGGGTKVEIKRTVAAPSVFIFPPSDEQLKSGTASVVCLLNNFYPREAKVQWKVDNALQSGNSQESVTEQDSKDSTYSLSSTLTLSKADYEKHKVYACEVTHQGLSSPVTKSFNRGECGGGGSGGGSEVQLVESGGGLVQPGGSLRLSCAASGRTFVTYGMGWFRQAPGKGREFVSAISWSGSMTSYGDSVKGRFTISRDNAKNTLYLQMNSLRPEDTAVYYCAAALGAVVYTTREPYTYWGQGTLVTVSS
For B2, the EC50 with human PD-L1 [1] is 0.591 nM; with human PD-L1 [3] it was 0.418 nM.

B3: CLDN18L-E2a-pdl1a (bispecific antibody)
heavy: not shown
light: DIVMTQSPLSLPVTPGEPASISCKSSQTLLNSGNQKNYLTWYLQKPGQSPQLLIYWASTGESGVPDRFSGSGSGTDFTLKISRVEAEDVGVYYCQNAYFYPFTFGGGTKVEIKRTVAAPSVFIFPPSDEQLKSGTASVVCLLNNFYPREAKVQWKVDNALQSGNSQESVTEQDSKDSTYSLSSTLTLSKADYEKHKVYACEVTHQGLSSPVTKSFNRGECERKSGVEGPPGPEVQLVESGGGLVQPGGSLRLSCAASGRTFVTYGMGWFRQAPGKGREFVSAISWSGSMTSYGDSVKGRFTISRDNAKNTLYLQMNSLRPEDTAVYYCAAALGAVVYTTREPYTYWGQGTLVTVSS
Regarding B3, the EC50 with human PD-L1 [1] was 0.439 nM.

B4: CLDN18L-E4a-pdl1a (bispecific antibody)
heavy: not shown
light: DIVMTQSPLSLPVTPGEPASISCKSSQTLLNSGNQKNYLTWYLQKPGQSPQLLIYWASTGESGVPDRFSGSGSGTDFTLKISRVEAEDVGVYYCQNAYFYPFTFGGGTKVEIKRTVAAPSVFIFPPSDEQLKSGTASVVCLLNNFYPREAKVQWKVDNALQSGNSQESVTEQDSKDSTYSLSSTLTLSKADYEKHKVYACEVTHQGLSSPVTKSFNRGECESKYGPPGPPGPEVQLVESGGGLVQPGGSLRLSCAASGRTFVTYGMGWFRQAPGKGREFVSAISWSGSMTSYGDSVKGRFTISRDNAKNTLYLQMNSLRPEDTAVYYCAAALGAVVYTTREPYTYWGQGTLVTVSS
As to B4, the EC50 with human PD-L1 [1] is 0.452 nM. This EC50 and that of the molecule before are within 1.5-fold of each other.

B5: CLDN18L-E4-pdl1a (bispecific antibody)
heavy: not shown
light: DIVMTQSPLSLPVTPGEPASISCKSSQTLLNSGNQKNYLTWYLQKPGQSPQLLIYWASTGESGVPDRFSGSGSGTDFTLKISRVEAEDVGVYYCQNAYFYPFTFGGGTKVEIKRTVAAPSVFIFPPSDEQLKSGTASVVCLLNNFYPREAKVQWKVDNALQSGNSQESVTEQDSKDSTYSLSSTLTLSKADYEKHKVYACEVTHQGLSSPVTKSFNRGECESKYGPPSPPSPEVQLVESGGGLVQPGGSLRLSCAASGRTFVTYGMGWFRQAPGKGREFVSAISWSGSMTSYGDSVKGRFTISRDNAKNTLYLQMNSLRPEDTAVYYCAAALGAVVYTTREPYTYWGQGTLVTVSS
B5: the EC50 with human PD-L1 [1] was 0.424 nM.

For the origin of these results see patent publication US20230125301A1 (published 2023).
